Among the data in patent publication US20240317858A1 (Adimab, published 2024) are EC50 and Kd values, retold here.

First the molecules themselves.
B1: Antibody No. V011 (ADI-70328) Fab (Fab, V domains shown)
VH: QVQLVQSGAEVKKPGASVKVSCKASGFNIDDYYMHWVRQAPGQRLEWIGWIDLENDNTVYDAKFQGRVTITRDTSASTAYMELSSLRSEDTAVYYCARDAYGRYFYDVWGQGTLVTVSS
VL: DIVMSQSPDSLAVSLGERATINCKSSQSLLNARTGKNYLAWYQQKPGQPPKLLIYWASTRSSGVPDRFSGSGSGTDFTLTISSLQAEDVAVYYCVQSYFRRTFGGGTKVEIK
notes: Fab by papain digestion of the IgG1
B2: Antibody No. V007 (ADI-67450) Fab (Fab, V domains shown)
VH: B1 VH with I48M, D56A, V59I, Y60D
VL: B1 VL with S5T, S61E, V95K, F99S
notes: as for B1
B3: Antibody No. A001 (ADI-26906) Fab (Fab, V domains shown)
VH: B1 VH with D30K, I48M, D56A, V59I
VL: B1 VL with S5T, S61E, V95K, F99S
notes: as for B1
B4: Antibody No. A002 (ADI-50024) Fab (Fab, V domains shown)
VH: B1 VH with D30K, D56A
VL: B1 VL
notes: as for B1
B5: Antibody No. V013 (ADI-70330) Fab (Fab, V domains shown)
VH: B1 VH with D56A, Y60D
VL: B1 VL
notes: as for B1

Changes are numbered by the printed parent chain.

T2 sequence (P07766 22-126, stated change not applied, form in doubt, chain 1 of 2): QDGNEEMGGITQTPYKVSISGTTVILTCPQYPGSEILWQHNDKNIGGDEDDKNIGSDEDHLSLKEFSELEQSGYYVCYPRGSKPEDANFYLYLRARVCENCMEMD
T2 sequence (P04234 22-100, stated change not applied, form in doubt, chain 2 of 2): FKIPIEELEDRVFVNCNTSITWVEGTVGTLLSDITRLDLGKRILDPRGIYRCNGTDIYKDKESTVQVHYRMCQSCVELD
T3 sequence (Q95LI5 22-117, stated change not applied, form in doubt, chain 1 of 2): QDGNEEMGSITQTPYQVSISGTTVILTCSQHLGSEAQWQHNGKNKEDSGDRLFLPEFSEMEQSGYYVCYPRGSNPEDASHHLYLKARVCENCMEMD
T3 sequence (Q95LI8 22-100, stated change not applied, form in doubt, chain 2 of 2): as the sequence (P04234 22-100, stated change not applied, form in doubt, chain 2 of 2) above, with I5V, N15K, I20V, S32T, D33N, I34N, T64A, S74N counted along it

In one assay the target is T1, Human CD3 on CD3+ Jurkat cells (human, UniProt P07766 23-207).
T1 construct: whole, on cells; Target is the endogenous CD3 complex on cells; also called Human CD3+ Jurkat cells
T1 sequence (P07766 23-207): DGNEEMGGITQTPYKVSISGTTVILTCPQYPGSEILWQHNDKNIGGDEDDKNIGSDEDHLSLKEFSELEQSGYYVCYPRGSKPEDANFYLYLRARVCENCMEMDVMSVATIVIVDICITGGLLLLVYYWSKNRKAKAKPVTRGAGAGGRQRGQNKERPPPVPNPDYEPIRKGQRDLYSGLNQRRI
Kind of assay: flow cytometry, Fab titration. As for the experimental part: Further FACS analysis was conducted using 3-fold serial dilutions of anti-CD3 antibody Fab fragments. Fab fragments were generated from whole IgG antibodies by papain digestion and purified over KappaSelect or CaptureSelect IgG-CH1 (GE Healthcare LifeSciences) before preparation of serial dilutions. Binding to human CD3+ Jurkat cells and Cynomolgus monkey CD3 HSC-F cells was assessed with each diluted sample and results were used to build a titration curve and calculate half maximal effective concentration (EC50) values for Fab binding.
(In flow cytometry, cells or beads pass a laser one at a time.)
Broadly, the EC50 is the concentration at which the effect is half-maximal. A higher EC50 goes with a less potent agent. B1 gave an EC50 of 2.77 nM.

The next assay has as its target T2, Human CD3εδ Fc heterodimer (Hu CD3ε Fc + CD3δ Fc-HIS) (human, UniProt P07766 22-126; P04234 22-100).
T2 construct: range 22-126;range 22-100; Made in HEK 293 cells with a heterologous signal peptide; also called Hu CD3εδ-Fc; CD3εδ Fc-HIS heterodimer; not shown: Fc; Fc followed by HIS tag
In words: SPR (Biacore), Fab over Hu CD3εδ-Fc; sensorgram inset labelled V007, tied by a line to an open square (PSR-optimized antibody); pH not given on the sheet. (In general: SPR reads the build-up and loss of mass on a sensor chip optically.)
Broadly, the Kd is a measure of binding affinity in units of concentration. For B2, the Kd is 3.7 nM.

The next assay deals with T2, Human CD3εδ Fc heterodimer (Hu CD3ε Fc …). In words: BLI (Octet), CD3εδ Fc on AHC sensor, 100 nM Fab. The procedure:
(§1) Affinity of the anti-CD3 antibodies for CD3 was determined by measuring their kinetic constants (kₒₙ, koff, KD) on ForteBio Octet®. ForteBio affinity measurements were performed generally as previously described (Estep et al., MAbs. 2013 5(2):270-8). […] Sensors were equilibrated off-line in assay buffer for 30 minutes and then monitored on-line for 60 seconds for baseline establishment. For monovalent binding measurement, sensors with loaded CD3εδ Fc were exposed to 100 nM anti-CD3 Fab, as further described in Example 2 below] for 3 minutes, afterwards they were transferred to assay buffer for 3 minutes for off-rate measurement. Kinetics data were fit using a 1:1 binding model in the data analysis software provided by ForteBio.
Regarding B3, the Kd was determined as 2.81 nM.
On to B4, for which the Kd was 0.5 nM.
On the same count and under the same terms, next, B2: 5.39 nM; B1: 0.82 nM; B5: 1.16 nM.

Another assay addresses T3, Cynomolgus CD3εδ Fc heterodimer (Cy CD3ε Fc + CD3δ Fc-HIS) (cynomolgus, UniProt Q95LI5 22-117; Q95LI8 22-100).
T3 construct: range 22-117;range 22-100; Made in HEK 293 cells with a heterologous signal peptide; also called Cy CD3εδ-Fc; cyno CD3εδ Fc; not shown: Fc; Fc followed by HIS tag
Kind of assay: BLI (Octet), CD3εδ Fc on AHC sensor, 100 nM Fab. The procedure:
as §1
For the molecule B3, the Kd was 2.9 nM.
Same read-out and setting: to B4 belongs 0.57 nM; to B2, 5.03 nM.
The same measure, in the same setting: to B1 belongs 0.86 nM; to B5, 1.23 nM.

The target in a further assay is T2, Human CD3εδ Fc heterodimer (Hu CD3ε Fc …). Kind of assay: SPR (Biacore), Fab over Hu CD3εδ-Fc; sensorgram inset tied by a line to the filled square (parent antibody) labelled A001; pH not given on the sheet.
B3: the Kd worked out at 2 nM.

The target is the same in a further assay. Kind of assay: SPR (Biacore), Fab over immobilized CD3εδ Fc, pH 6.0. The procedure: (§2) Anti-CD3 antibodies A001-A005, V002, V004, V007, V009, V010, V013, and V014-V019 were produced in CHO cells, and Fab fragments were generated from IgG1 antibodies by papain digestion and purification as described in Example 2. Monovalent binding affinity at pH 7.4 and pH 6.0 was measured via surface plasmon resonance (SPR). Briefly, human or cynomolgus CD3εδ Fe heterodimer produced as described in Example 2 was immobilized to a CM5 sensor chip in a Biacore® X100 (Cytiva, previously GE Healthcare Life Sciences) to a response level of ˜500 RUs. Fabs were then injected at 3-fold increasing concentrations, ranging from 0.74-180 nM. The sensor chip was doubly regenerated between cycles using 0.35 M EDTA and 0.1 M NaOH. The resulting data were double reference subtracted and fit to a 1:1 binding model using Biacore® Evaluation Software.
Regarding B3, the Kd was determined as 1.3 nM.
Consider B4, for which the dissociation constant (Kd) is 0.31 nM.
Still for that read-out and setting: next, B2: 2.8 nM; B5: 1.6 nM.

A further assay has as its target T3, Cynomolgus CD3εδ Fc heterodimer (Cy …). The assay is described as above. As for the experimental part:
as §2
As for B3, the dissociation constant (Kd) is 1.9 nM.
Same read-out and setting: next, B4: 0.2 nM; B2: 2.1 nM.
On the same count and under the same terms, next, B5: 0.27 nM.

In another assay the target is T2, Human CD3εδ Fc heterodimer (Hu CD3ε Fc …). Kind of assay: SPR (Biacore), Fab over Hu CD3εδ-Fc; sensorgram inset labelled V013, tied by a line to an open square (PSR-optimized antibody); pH not given on the sheet.
Regarding B5, the Kd came out at 0.681 nM.

The next assay has the same target. In words: SPR (Biacore), Fab over Hu CD3εδ-Fc; sensorgram inset tied by a line to the filled square (parent antibody) labelled A002; pH not given on the sheet.
Turning to B4, the Kd was determined as 0.244 nM.

The next assay shares this target. Kind of assay: BLI (Octet), Fab monovalent, pH 7.4. The procedure:
(§3) ForteBio KD measurements (Biolayer interferometry; BLI). ForteBio affinity measurements were performed generally as previously described (Estep, P., et al., High throughput solution-based measurement of antibody-antigen affinity and epitope binning. MAbs, 2013. 5(2): p. 270-8.). Briefly, ForteBio affinity measurements were performed by loading IgGs or CD3εδ Fe-HIS heterodimer onto AHC sensors. Sensors were equilibrated off-line in assay buffer for 30 min and then monitored on-line for 60 seconds for baseline establishment. Sensors with loaded IgGs were exposed to 100 nM antigen (e.g., CD3) for 3 min, afterwards they were transferred to assay buffer for 10 min for off-rate measurement. Sensors loaded with CD3εδ Fe-HIS heterodimer were exposed to 100 nM anti-CD3 Fab for 3 min, afterwards they were transferred to assay buffer for 3 min or 10 min for off-rate measurement. Kinetics were analyzed using the 1:1 binding model. For measuring binding at different pHs, measurements were performed at pre-determined pHs (e.g., pH 7.4 and pH 6.0).
(§4) Anti-CD3 antibodies A001-A005, V002, V004, V007, V009, V010, V013, and V014-V019 were produced as IgG1s in CHO cells, and Fab fragments were generated from IgG1 antibodies by papain digestion and purification as described in Example 2. Human, cynomolgus, rhesus, and mouse CD3εδ Fc heterodimers were produced, and monovalent binding affinity and avidity at pH 7.4 and pH 6.0 were measured using the Octet® HTX instrument (ForteBio) as described in Example 2.
With B3, the Kd was found to be 6 nM.
Still for that read-out and setting: to B4 belongs 1 nM; to B2, 7.4 nM; to B5, 2.4 nM.

A further assay has as its target T3, Cynomolgus CD3εδ Fc heterodimer (Cy …). In words: BLI (Octet), Fab monovalent, pH 7.4. As for the experimental part: as §3, §4
(BLI is a label-free optical method that tracks binding on a fibre tip over time.)
Turning to B3, the Kd turned out to be 5.9 nM.
The same measure, in the same setting: to B4 belongs 1.3 nM.
Take B2: the Kd came to 8.7 nM.
The same measure, in the same setting: to B5 belongs 2.4 nM.

The next assay addresses T4, Rhesus CD3εδ Fc heterodimer (rhesus).
T4 construct: extracellular domain; also called Rh CD3εδ-Fc
Kind of assay: BLI (Octet), Fab monovalent, pH 7.4. The procedure: as §3, §4
Consider B3, for which the affinity, expressed as Kd, was 6.1 nM.
The molecule B4 yielded a dissociation constant (Kd) of 1.2 nM.
The same measure, in the same setting: to B2 belongs 9.2 nM; to B5, 2.5 nM.

A further assay addresses T2, Human CD3εδ Fc heterodimer (Hu CD3ε Fc …). In words: SPR (Biacore), Fab over immobilized CD3εδ Fc, pH 7.4. As for the experimental part: as §2
Consider B3, for which the Kd came out at 1.1 nM.
For B4, the Kd is 0.059 nM.
Consider B2, for which the Kd was determined as 4 nM.
With B5, the equilibrium dissociation constant (Kd) was 0.18 nM.

The target of the next assay is T3, Cynomolgus CD3εδ Fc heterodimer (Cy …). The description is as above. The procedure:
as §2
On to B3, for which the dissociation constant (Kd) was 1.1 nM.
The same measure, in the same setting: to B4 belongs 0.076 nM; to B2, 2.7 nM; to B5, 0.22 nM.

Another assay has as its target T2, Human CD3εδ Fc heterodimer (Hu CD3ε Fc …). In words: BLI (Octet), Fab monovalent, pH 6.0. As for the experimental part:
as §3, §4
Take B3: the Kd was 5.8 nM.
The same measure, in the same setting: next, B4: 1.3 nM; B2: 6.9 nM; B5: 1.6 nM.

In another assay the target is T3, Cynomolgus CD3εδ Fc heterodimer (Cy …). In words: BLI (Octet), Fab monovalent, pH 6.0. As for the experimental part: as §3, §4
As for B3, the Kd turned out to be 5.9 nM.
Same read-out and setting: next, B4: 1.7 nM; B2: 6.9 nM.
Consider B5, for which the equilibrium dissociation constant (Kd) amounted to 1.9 nM.
